Where two headings read alike, the source gives them in different places.

The target in assay [1] is T1, 人单核细胞白血病细胞(THP-1)表面LILRB4 (human, UniProt Q8NHJ6 22-448). The assay is described as follows: cell-based or functional assay.
The target of assay [2] is T1, 人单核细胞白血病细胞(THP-1)表面LILRB4. Nature of the assay: cell-based or functional assay. This is another data set of the same source.

B1: MA-Ⅰ 鼠源抗LILRB4单克隆抗体 (mouse IgG1/Cκ) (antibody)
heavy: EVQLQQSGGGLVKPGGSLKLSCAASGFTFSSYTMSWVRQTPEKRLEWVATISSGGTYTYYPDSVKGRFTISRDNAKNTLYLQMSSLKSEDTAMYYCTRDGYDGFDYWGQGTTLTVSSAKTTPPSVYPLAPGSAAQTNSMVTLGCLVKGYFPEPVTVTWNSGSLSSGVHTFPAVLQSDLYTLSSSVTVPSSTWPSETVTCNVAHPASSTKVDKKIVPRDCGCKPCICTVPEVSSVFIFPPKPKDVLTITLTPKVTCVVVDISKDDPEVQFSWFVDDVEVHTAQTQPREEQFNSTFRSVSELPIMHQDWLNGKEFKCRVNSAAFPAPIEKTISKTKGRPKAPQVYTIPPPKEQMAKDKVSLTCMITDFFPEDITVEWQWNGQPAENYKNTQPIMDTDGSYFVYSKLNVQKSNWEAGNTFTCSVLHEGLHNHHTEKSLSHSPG
light: DIVMTQTTLSLPVSPGDQASISCRSSQSLAHSNGNTYLHWYLQKPGQSPKLLIYKVSNRFSGVPDRFSGSGSGTDFTLKISRVEAEDLGVYFCSQSTLVPTFGGGTKLEIKADAAPTVSIFPPSSEQLTSGGASVVCFLNNFYPKDINVKWKIDGSERQNGVLNSWTDQDSKDSTYSMSSTLTLTKDEYERHNSYTCEATHKTSTSPIVKSFNRNEC
As for B1, the “IC50, inhibition of ARG1 secretion by THP-1 cells in the presence of ApoE (arginase activity kit)” value (from here on “IC50, inhibition of ARG1 secretion”) in assay [1] was determined as 23.9 µg/mL.

B2: 人源化抗LILRB4单克隆抗体HA-Ⅱ (human IgG1/Cκ) (antibody, V domains shown)
VH: EVQLVESGGGLVKPGGSLRLSCAASGFTFSSYTMSWVRQAPGKGLEWVATISSGGTYTYYPDSVKGRFTISRDNAKNSLYLQMNSLRAEDTAVYYCARDGYDGFDYWGQGTTVTVSS
VL: DIVMTQTPLSLSVTPGQPASISCRSSQSLAHSNGNTYLHWYLQKPGQSPQLLIYKVSNRFSGVPDRFSGSGSGTDFTLKISRVEAEDVGVYFCSQSTHVPTFGGGTKVEIKR
For the molecule B2, the “IC50, inhibition of ARG1 secretion” value in assay [2] came to 250 µg/mL.

B3: 人源化抗LILRB4单克隆抗体HA-Ⅰ (human IgG1/Cκ) (antibody, V domains shown)
VH: EVQLVESGGGLVKPGGSLRLSCAASGFTFSSYTMSWVRQAPGKGLEWVSTISSGGTYTYYPDSVKGRFTISRDNAKNSLYLQMNSLRAEDTAVYYCARDGYDGFDYWGQGTTVTVSS
VL: DIVMTQTPLSLSVTPGQPASISCRSSQSLAHSNGNTYLHWYLQKPGQSPQLLIYKVSNRFSGVPDRFSGSGSGTDFTLKISRVEAEDVGVYYCSQSTHVPTFGGGTKVEIKR
Consider B3, for which the “IC50, inhibition of ARG1 secretion” value in assay [2] is 31.2 µg/mL.

B4: 人源化抗LILRB4单克隆抗体HA-Ⅲ (human IgG1/Cκ) (antibody, V domains shown)
VH: EVQLVESGGGLVKPGGSLRLSCAASGFTFSSYTMSWVRQAPGKGLEWVATISSGGTYTYYPDSVKGRFTISRDNAKNSLYLQMNSLRAEDTAVYYCTRDGYDGFDYWGQGTTVTVSS
VL: DIVMTQTPLSLSVTPGQPASISCRSSQSLAHSNGNTYLHWYLQKPGQSPKLLIYKVSNRFSGVPDRFSGSGSGTDFTLKISRVEAEDVGVYFCSQSTHVPTFGGGTKVEIKR
As to B4, the “IC50, inhibition of ARG1 secretion” value in assay [2] came out at 98.5 µg/mL.

B5: MB-Ⅰ 鼠源抗LILRB4单克隆抗体 (mouse IgG1/Cκ) (antibody)
heavy: QVQLQESGAELVKPGASVKLSCKASGYTFTNYWMHWVKQRPGQGLEWIGEINPSNGRTNYNEKFKTKATLTVDKSSSTAYMQLSSLTSEDSAVYYCARWGQLGLREGYYAVDYWGQGTSVTVSSAKTTPPSVYPLAPGSAAQTNSMVTLGCLVKGYFPEPVTVTWNSGSLSSGVHTFPAVLQSDLYTLSSSVTVPSSTWPSETVTCNVAHPASSTKVDKKIVPRDCGCKPCICTVPEVSSVFIFPPKPKDVLTITLTPKVTCVVVDISKDDPEVQFSWFVDDVEVHTAQTQPREEQFNSTFRSVSELPIMHQDWLNGKEFKCRVNSAAFPAPIEKTISKTKGRPKAPQVYTIPPPKEQMAKDKVSLTCMITDFFPEDITVEWQWNGQPAENYKNTQPIMDTDGSYFVYSKLNVQKSNWEAGNTFTCSVLHEGLHNHHTEKSLSHSPG
light: DIVMTQSPSSLSASLGDRVTISCRASQDISNYLNWYQQKPDGTVKLLIYYTSRLHSGVPSRFSGSGSGTDYSLTISNLEQEDIATYFCQQGNTLPPTFGGGTKLEIKADAAPTVSIFPPSSEQLTSGGASVVCFLNNFYPKDINVKWKIDGSERQNGVLNSWTDQDSKDSTYSMSSTLTLTKDEYERHNSYTCEATHKTSTSPIVKSFNRNEC
Take B5: the “IC50, inhibition of ARG1 secretion” value in assay [1] is 46 µg/mL.
